Where a chain is given by its changes, count along the chain named. Names may count otherwise. “And” between values parts separate entries of the source, which are not always exact repeats. Identical values can stand only once. Like-named read-outs stand apart in the source and are kept apart here.

The term EC50 denotes the concentration giving half of the maximal effect. Higher therefore signals a less potent agent.

Assay [1] concerns the target T1, rhesus CD11a (rhesus, UniProt H9Z8N3 26-1169).
T1 construct: whole, on cells; also called rhCD11a
T1 sequence: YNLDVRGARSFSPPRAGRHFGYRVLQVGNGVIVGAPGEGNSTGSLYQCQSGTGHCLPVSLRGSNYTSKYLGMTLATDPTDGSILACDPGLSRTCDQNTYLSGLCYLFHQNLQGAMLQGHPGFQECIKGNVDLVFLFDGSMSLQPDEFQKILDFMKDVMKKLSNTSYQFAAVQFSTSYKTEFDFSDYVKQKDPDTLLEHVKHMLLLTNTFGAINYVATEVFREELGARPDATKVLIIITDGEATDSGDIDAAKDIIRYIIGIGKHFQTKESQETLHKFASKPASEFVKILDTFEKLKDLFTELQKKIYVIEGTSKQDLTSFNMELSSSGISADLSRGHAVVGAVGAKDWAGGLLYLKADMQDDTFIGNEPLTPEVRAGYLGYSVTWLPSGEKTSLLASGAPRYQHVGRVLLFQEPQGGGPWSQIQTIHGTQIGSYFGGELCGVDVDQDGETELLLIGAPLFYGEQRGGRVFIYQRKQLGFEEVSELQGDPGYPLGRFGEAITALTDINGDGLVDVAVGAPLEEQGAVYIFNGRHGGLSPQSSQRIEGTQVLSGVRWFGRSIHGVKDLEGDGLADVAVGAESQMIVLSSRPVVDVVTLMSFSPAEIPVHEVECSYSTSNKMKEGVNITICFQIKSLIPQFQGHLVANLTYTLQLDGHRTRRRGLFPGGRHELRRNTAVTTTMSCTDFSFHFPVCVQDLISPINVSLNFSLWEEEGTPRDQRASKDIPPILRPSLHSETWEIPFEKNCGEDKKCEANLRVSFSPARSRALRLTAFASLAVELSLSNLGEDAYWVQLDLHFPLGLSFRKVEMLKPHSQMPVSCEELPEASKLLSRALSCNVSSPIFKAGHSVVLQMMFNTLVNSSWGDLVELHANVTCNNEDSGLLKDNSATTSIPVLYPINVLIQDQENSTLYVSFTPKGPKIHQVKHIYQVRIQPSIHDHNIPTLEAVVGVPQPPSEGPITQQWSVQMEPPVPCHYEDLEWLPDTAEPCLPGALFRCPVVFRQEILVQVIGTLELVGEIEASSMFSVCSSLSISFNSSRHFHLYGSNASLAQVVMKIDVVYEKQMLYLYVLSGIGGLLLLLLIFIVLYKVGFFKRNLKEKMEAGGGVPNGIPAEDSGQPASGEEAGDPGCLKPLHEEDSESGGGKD
The assay can be described thus: cell binding EC50 on rhesus CD11a against HuIgG1 on human CD11a.

For assay [2], the target named is T1, rhesus CD11a. The assay can be described thus: cell-based or functional assay.
Assay [3] addresses T2, rhesus-human chimeric CD11a (Rh/HuCD11a) (human (I-domain mutated to rhesus), UniProt P20701 26-1170).
T2 sequence (looked up): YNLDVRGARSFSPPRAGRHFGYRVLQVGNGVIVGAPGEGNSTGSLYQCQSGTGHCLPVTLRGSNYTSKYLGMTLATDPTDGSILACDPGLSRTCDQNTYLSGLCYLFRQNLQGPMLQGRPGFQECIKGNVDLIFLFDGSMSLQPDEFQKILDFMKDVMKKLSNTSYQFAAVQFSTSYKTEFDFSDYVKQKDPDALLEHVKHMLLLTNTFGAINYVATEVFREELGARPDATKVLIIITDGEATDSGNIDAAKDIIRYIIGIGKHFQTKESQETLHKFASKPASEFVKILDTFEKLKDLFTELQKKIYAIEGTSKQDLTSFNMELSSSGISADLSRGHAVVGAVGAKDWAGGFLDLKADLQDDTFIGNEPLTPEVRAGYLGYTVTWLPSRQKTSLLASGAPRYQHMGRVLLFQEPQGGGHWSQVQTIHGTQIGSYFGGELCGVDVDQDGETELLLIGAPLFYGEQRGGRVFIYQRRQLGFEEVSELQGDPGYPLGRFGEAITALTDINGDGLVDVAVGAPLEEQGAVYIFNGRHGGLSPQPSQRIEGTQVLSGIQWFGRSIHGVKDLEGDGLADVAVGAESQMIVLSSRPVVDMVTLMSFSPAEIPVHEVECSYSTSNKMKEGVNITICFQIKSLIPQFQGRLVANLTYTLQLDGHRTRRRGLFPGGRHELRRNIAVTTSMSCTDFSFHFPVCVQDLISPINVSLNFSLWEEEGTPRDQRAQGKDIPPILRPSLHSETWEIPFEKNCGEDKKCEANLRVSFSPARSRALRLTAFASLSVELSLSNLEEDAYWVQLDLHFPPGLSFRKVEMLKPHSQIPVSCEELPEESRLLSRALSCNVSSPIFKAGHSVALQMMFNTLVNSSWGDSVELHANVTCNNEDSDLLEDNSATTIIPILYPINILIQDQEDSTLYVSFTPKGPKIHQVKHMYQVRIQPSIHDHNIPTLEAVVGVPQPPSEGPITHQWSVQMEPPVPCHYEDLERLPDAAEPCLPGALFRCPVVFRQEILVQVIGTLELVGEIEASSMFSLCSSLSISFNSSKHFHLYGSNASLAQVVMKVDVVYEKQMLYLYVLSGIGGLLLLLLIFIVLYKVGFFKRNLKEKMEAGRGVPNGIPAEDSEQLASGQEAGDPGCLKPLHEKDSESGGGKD
The assay can be described thus: cell-based or functional assay.

The target of assay [4] is T1, rhesus CD11a. The assay can be described thus: binding to rhesus peripheral blood lymphocytes.
The target of assay [5] is T1, rhesus CD11a. The assay can be described thus: saturation binding, Kd(app).
Assay [6] has as its target T1, rhesus CD11a. The assay can be described thus: saturation binding, rhesus leukocytes, donor 3, with 1 mg/ml human IgG1, Kd(app).
For assay [7], the target named is T1, rhesus CD11a. The assay can be described thus: cell-based or functional assay. This is another data set of the same source.
Assay [8] has as its target T2, rhesus-human chimeric CD11a (Rh/HuCD11a). The assay can be described thus: cell-based or functional assay. The source holds these as a separate data set.
For assay [9], the target named is T1, rhesus CD11a. The assay can be described thus: binding to rhesus peripheral blood lymphocytes. The source holds these as a separate data set.
In assay [10] the target is T1, rhesus CD11a. The assay can be described thus: cell-based or functional assay. The source holds these as a separate data set.
Assay [11] addresses T1, rhesus CD11a. The assay can be described thus: saturation binding, rhesus leukocytes, donor 1, Kd(app).
In assay [12] the target is T3, human CD11a (human, UniProt P20701 26-1170).
T3 construct: whole, on cells; On cells it stands paired with CD18 as LFA-1; also called alpha subunit of LFA-1; LFA-1 (CD11a/CD18)
The assay can be described thus: FACScan, Jurkat cells.

In assay [13] the target is T3, human CD11a. The assay can be described thus: FACScan, Jurkat cells. The source holds these as a separate data set.
The target of assay [14] is T3, human CD11a. The assay can be described thus: saturation binding, human lymphocytes, donor 2, Kd(app).
For assay [15], the target named is T3, human CD11a. The assay can be described thus: cell-based or functional assay.
The target of assay [16] is T3, human CD11a. The assay can be described thus: saturation binding, human lymphocytes, donor 1, Kd(app).
Assay [17] deals with T1, rhesus CD11a. The assay can be described thus: cell binding EC50, rhesus against human CD11a.
Assay [18] concerns the target T3, human CD11a. The assay can be described thus: saturation binding of 125I-antibody to human mononuclear cells, Kd(app).

B1: rhesus-binding MHM24 (RhIgG1), variant H2C12 (antibody, V domains shown)
VH: EVQLVESGGGLVQPGGSLRLSCAASGYSFTGHWMNWVRQAPGKGLEWVGMIAPASSSTRYNQKFKDRFTISVDKSKNTLYLQMNSLRAEDTAVYYCARGIYFYGTTYFDYWGQGTLVTVSS
VL: DIQMTQSPSSLSASVGDRVTITCRASKTISKYLAWYQQKPGKAPKLLIYSGSTLQSGVPSRFSGSGSGTDFTLTISSLQPEDFATYYCQQHNEYPLTFGQGTKVEIKR
notes: Human IgG1; also called H2C l2; H2Cl2
As to B1, the “fold weaker than the EC50 of HuIgG1 for human CD11a” value in assay [1] lay in the range of 3 to 5 fold. Further, in [2], the “fold less efficacious than MHM23, rhesus lymphocytes to human keratinocytes” value stood at 74 fold and the “fold less efficacious than MHM23, rhesus lymphocytes to recombinant human ICAM-1” value came to 4 fold. In assay [3], the “fold down from MHM23, Rh/HuCD11a-293 cells to human keratinocytes” value turned out to be 4 fold. For the same molecule, the “Var.EC50/HuIgG1 EC50” value in assay [4] came to 0.004 ratio. Also, the “fold down in Kd from HuIgG1 for human CD11a” value in assay [5] was about 26 fold. Moreover, the Kd in [6] was 2.8 nM and 2.7 nM. Besides, in assay [7], the “IC50, blocking of cell adhesion, RhLy:HuICAM” value stood at 5.3 nM and the “IC50, blocking of cell adhesion, RhLy:HuK” value is 119 nM. Besides, in assay [8], the “IC50, blocking of cell adhesion, Rh/HuCD11a:HuK” value came out at 4.9 nM. Further, in [9], the EC50 stood at 0.19 nM and the “fold improvement over the EC50 of HuIgG1 for rhesus CD11a” value lay in the range of 240 to 415 fold. Also, the “IC50, rhesus mixed lymphocyte response assay” value in assay [10] is 23.4 nM. In addition, the Kd in assay [11] came to 3.9 nM.

B2: humanized MHM24 F(ab)-7 (Fab, V domains shown)
VH: B1 VH with A52H, A54S, S55D, S57E, K76S, N77S
VL: DIQMTQSPSSLSASVGDRVTITCRASKTISKYLAWYQQKPGKAPKLLIYSGSTLQSGVPSRFSGSGSGTDFTLTISSLQPEDFATYYCQQHNEYPLTFGQGTKVEIK
Regarding B2, the “EC50 F(ab)/EC50 F(ab)-2” value in [12] amounted to 0.004 ratio. Further, the “fold improvement in binding over F(ab)-6” value in assay [13] stood at 3 fold.

B3: humanized MHM24 F(ab)-6 (Fab, V domains shown)
VH: B1 VH with Y27F, A52H, A54S, S55D, S57E, K76S, N77S
VL: B2 VL
B3: the “EC50 F(ab)/EC50 F(ab)-2” value in assay [12] turned out to be 0.012 ratio. Besides, the “fold improvement in binding over F(ab)-5” value in assay [13] worked out at 4 fold.

B4: H2C11 variant IgG1 (antibody, V domains shown)
VH: B1 VH with S57N
VL: B2 VL
notes: HuIgG1 variant, human IgG1
With B4, the “fold weaker than the EC50 of HuIgG1 for human CD11a” value in assay [1] was 3 to 5 fold. Also, the “Var.EC50/HuIgG1 EC50” value in assay [4] was determined as 0.002 ratio. Moreover, in assay [9], the EC50 is 0.11 nM and the “fold improvement over the EC50 of HuIgG1 for rhesus CD11a” value lay in the range of 240 to 415 fold.

B5: humanized MHM24 F(ab)-1 (Fab, V domains shown)
VH: EVQLVESGGGLVQPGGSLRLSCAASGFSFTGHWMNWVRQAPGKGLEWVGMIHPSDSETRYADSVKGRFTISVDNSKNTLYLQMNSLRAEDTAVYYCARGIYFYGTTYFDYWGQGTLVTVSS
VL: B2 VL with T53S, Q55E
notes: F(ab) from E. coli (VH-CH1 and kappa light chain)
In the case of B5, in assay [12], the binding result is “no binding”.

B6: humanized MHM24 F(ab)-2 (Fab, V domains shown)
VH: B5 VH with A61N, D62Q, S63K, V64F, G66D
VL: B2 VL with T53S, Q55E
notes: F(ab) from E. coli
For the molecule B6, in [12], the EC50 was 0.771 µg/mL and the “EC50 F(ab)/EC50 F(ab)-2” value was determined as 1 ratio. In addition, the “fold weaker EC50 than chimeric IgG1” value in [13] was 148 fold.

B7: murine MHM24 (antibody, V domains shown)
VH: EVQLQQPGAELMRPGASVKLSCKASGYSFTGHWMNWVRQRPGQGLEWIGMIHPSDSETRLNQKFKDKATLTVDKSSSSAYMQLSSPTSEDSAVYYCARGIYFYGTTYFDYWGQGTTLTVSS
VL: DVQITQSPSYLAASPGETISINCRASKTISKYLAWYQEKPGKTNKLLIYSGSTLQSGIPSRFSGSGSGTDFTLTISSLEPEDFAMYYCQQHNEYPLTFGTGTKLELKR
notes: Murine monoclonal antibody; also called muMHM24; murMHM24
With B7, the figures for the Kd in assay [14], in assay [16] and in assay [18] were 0.13 nM, 0.16 nM and 0.15 nM, respectively. In addition, the “IC50, blocking of cell adhesion, Jurkat:HuK” value in [15] turned out to be 0.09 nM. Also, the “fold reduction in binding against human CD11a” value in assay [17] was about 1000 fold.

B8: chimeric MHM24 IgG1 (chIgG1) (antibody, V domains shown)
VH: B7 VH
VL: B7 VL
notes: Murine VL and VH fused to human constant light and heavy (IgG1) chains; also called chimeric IgG1; chlgG1
As to B8, the “IC50, blocking of cell adhesion, Jurkat:HuK” value in assay [15] amounted to 0.1 nM. Besides, the “EC50 F(ab)/EC50 F(ab)-2” value in [12] worked out at 0.006 ratio. This molecule displayed an EC50 in assay [13] of 0.0052 µg/mL.
